Results as given in article PMC9957003, “Functional Analyses of Rare Germline Missense BRCA1 Variants Located within and outside Protein Domains with Known Functions” (Genes, 2023).
Residue numbers refer to the chain shown, from its start.

T1: BARD1-V5 WT (BRCA1-Associated RING Domain protein 1) (UniProt Q99728 1-777)
T1 construct: BARD1 (BRCA1-Associated RING Domain protein 1), wild type; also called pcDNA6.2-BARD1-V5; source: HEK293FT, transiently co-transfected, in lysate
T1 sequence (looked up): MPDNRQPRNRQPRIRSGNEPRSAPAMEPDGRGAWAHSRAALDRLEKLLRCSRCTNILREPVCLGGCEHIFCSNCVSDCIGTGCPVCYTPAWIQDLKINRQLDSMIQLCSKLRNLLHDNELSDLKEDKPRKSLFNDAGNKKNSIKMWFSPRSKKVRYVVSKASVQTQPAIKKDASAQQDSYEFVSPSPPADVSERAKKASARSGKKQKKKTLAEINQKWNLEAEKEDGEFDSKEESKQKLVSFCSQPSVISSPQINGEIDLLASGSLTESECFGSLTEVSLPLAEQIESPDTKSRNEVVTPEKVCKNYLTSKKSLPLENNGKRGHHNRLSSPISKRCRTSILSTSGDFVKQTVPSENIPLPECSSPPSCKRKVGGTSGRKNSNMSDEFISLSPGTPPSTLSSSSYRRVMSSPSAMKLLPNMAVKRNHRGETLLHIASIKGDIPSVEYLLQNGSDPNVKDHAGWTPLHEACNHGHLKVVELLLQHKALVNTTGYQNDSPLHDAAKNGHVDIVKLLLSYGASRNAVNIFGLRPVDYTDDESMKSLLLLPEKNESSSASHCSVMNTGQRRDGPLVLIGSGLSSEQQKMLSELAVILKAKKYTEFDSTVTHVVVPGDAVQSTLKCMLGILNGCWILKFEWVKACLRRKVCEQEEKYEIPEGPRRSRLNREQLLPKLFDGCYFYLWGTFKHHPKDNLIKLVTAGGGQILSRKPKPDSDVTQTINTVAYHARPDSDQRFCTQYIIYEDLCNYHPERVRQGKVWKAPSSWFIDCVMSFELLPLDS

T2: Flag-PALB2 WT (Partner and Localiser of BRCA2) (UniProt Q86YC2 1-1186)
T2 construct: PALB2 (Partner and Localiser of BRCA2), wild type; printed both as Flag-PALB2 and as PALB2-Flag; also called PALB2-Flag; pDEST-FRT/T0-Flag-PALB2; source: HEK293FT, transiently co-transfected, in lysate
T2 sequence (looked up): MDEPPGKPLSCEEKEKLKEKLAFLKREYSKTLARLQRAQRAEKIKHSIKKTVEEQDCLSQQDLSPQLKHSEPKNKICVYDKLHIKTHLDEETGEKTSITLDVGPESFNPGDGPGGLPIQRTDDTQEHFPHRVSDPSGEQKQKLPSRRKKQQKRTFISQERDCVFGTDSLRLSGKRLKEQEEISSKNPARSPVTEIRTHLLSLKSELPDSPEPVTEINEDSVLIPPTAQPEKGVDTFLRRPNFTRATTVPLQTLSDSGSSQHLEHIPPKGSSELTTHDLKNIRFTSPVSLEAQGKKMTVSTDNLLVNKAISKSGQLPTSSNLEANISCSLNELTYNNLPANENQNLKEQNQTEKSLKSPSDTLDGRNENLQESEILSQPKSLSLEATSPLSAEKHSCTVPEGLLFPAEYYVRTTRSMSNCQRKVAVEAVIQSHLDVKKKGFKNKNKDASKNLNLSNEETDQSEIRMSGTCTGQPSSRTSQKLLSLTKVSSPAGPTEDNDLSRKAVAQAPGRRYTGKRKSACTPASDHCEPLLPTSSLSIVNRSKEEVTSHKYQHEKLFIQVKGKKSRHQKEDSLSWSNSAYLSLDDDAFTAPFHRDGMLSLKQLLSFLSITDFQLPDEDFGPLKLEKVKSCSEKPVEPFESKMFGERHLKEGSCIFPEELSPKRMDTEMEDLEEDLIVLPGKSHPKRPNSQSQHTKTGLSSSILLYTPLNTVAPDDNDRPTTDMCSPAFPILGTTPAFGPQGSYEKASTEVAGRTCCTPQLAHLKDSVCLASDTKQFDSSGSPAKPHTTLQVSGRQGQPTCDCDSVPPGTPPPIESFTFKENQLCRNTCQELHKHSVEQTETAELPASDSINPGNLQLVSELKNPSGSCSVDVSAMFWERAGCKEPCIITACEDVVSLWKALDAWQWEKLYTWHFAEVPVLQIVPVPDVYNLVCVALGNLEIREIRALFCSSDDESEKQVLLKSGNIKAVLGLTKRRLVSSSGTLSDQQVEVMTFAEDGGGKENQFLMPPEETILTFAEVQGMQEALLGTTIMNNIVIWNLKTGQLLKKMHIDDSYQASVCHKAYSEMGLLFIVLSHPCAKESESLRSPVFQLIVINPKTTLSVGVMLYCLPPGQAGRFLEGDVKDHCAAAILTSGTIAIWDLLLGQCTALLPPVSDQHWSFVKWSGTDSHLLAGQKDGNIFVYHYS

B1: BRCA1 p.Leu523Val (full-length, mCherry-tagged) (natural protein, human, UniProt P38398 1-1863, looked up)
chain: MDLSALRVEEVQNVINAMQKILECPICLELIKEPVSTKCDHIFCKFCMLKLLNQKKGPSQCPLCKNDITKRSLQESTRFSQLVEELLKIICAFQLDTGLEYANSYNFAKKENNSPEHLKDEVSIIQSMGYRNRAKRLLQSEPENPSLQETSLSVQLSNLGTVRTLRTKQRIQPQKTSVYIELGSDSSEDTVNKATYCSVGDQELLQITPQGTRDEISLDSAKKAACEFSETDVTNTEHHQPSNNDLNTTEKRAAERHPEKYQGSSVSNLHVEPCGTNTHASSLQHENSSLLLTKDRMNVEKAEFCNKSKQPGLARSQHNRWAGSKETCNDRRTPSTEKKVDLNADPLCERKEWNKQKLPCSENPRDTEDVPWITLNSSIQKVNEWFSRSDELLGSDDSHDGESESNAKVADVLDVLNEVDEYSGSSEKIDLLASDPHEALICKSERVHSKSVESNIEDKIFGKTYRKKASLPNLSHVTENLIIGAFVTEPQIIQERPLTNKLKRKRRPTSGLHPEDFIKKADVAVQKTPEMINQGTNQTEQNGQVMNITNSGHENKTKGDSIQNEKNPNPIESLEKESAFKTKAEPISSSISNMELELNIHNSKAPKKNRLRRKSSTRHIHALELVVSRNLSPPNCTELQIDSCSSSEEIKKKKYNQMPVRHSRNLQLMEGKEPATGAKKSNKPNEQTSKRHDSDTFPELKLTNAPGSFTKCSNTSELKEFVNPSLPREEKEEKLETVKVSNNAEDPKDLMLSGERVLQTERSVESSSISLVPGTDYGTQESISLLEVSTLGKAKTEPNKCVSQCAAFENPKGLIHGCSKDNRNDTEGFKYPLGHEVNHSRETSIEMEESELDAQYLQNTFKVSKRQSFAPFSNPGNAEEECATFSAHSGSLKKQSPKVTFECEQKEENQGKNESNIKPVQTVNITAGFPVVGQKDKPVDNAKCSIKGGSRFCLSSQFRGNETGLITPNKHGLLQNPYRIPPLFPIKSFVKTKCKKNLLEENFEEHSMSPEREMGNENIPSTVSTISRNNIRENVFKEASSSNINEVGSSTNEVGSSINEIGSSDENIQAELGRNRGPKLNAMLRLGVLQPEVYKQSLPGSNCKHPEIKKQEYEEVVQTVNTDFSPYLISDNLEQPMGSSHASQVCSETPDDLLDDGEIKEDTSFAENDIKESSAVFSKSVQKGELSRSPSPFTHTHLAQGYRRGAKKLESSEENLSSEDEELPCFQHLLFGKVNNIPSQSTRHSTVATECLSKNTEENLLSLKNSLNDCSNQVILAKASQEHHLSEETKCSASLFSSQCSELEDLTANTNTQDPFLIGSSKQMRHQSESQGVGLSDKELVSDDEERGTGLEENNQEEQSMDSNLGEAASGCESETSVSEDCSGLSSQSDILTTQQRDTMQHNLIKLQQEMAELEAVLEQHGSQPSNSYPSIISDSSALEDLRNPEQSTSEKAVLTSQKSSEYPISQNPEGLSADKFEVSADSSTSKNKEPGVERSSPSKCPSLDDRWYMHSCSGSLQNRNYPSQEELIKVVDVEEQQLEESGPHDLTETSYLPRQDLEGTPYLESGISLFSDDPESDPSEDRAPESARVGNIPSSTSALKVPQLKVAESAQSPAAAHTTDTAGYNAMEESVSREKPELTASTERVNKRMSMVVSGLTPEEFMLVYKFARKHHITLTNLITEETTHVVMKTDAEFVCERTLKYFLGIAGGKWVVSYFWVTQSIKERKMLNEHDFEVRGDVVNGRNHQGPKRARESQDRKIFRGLEICCYGPFTNMPTDQLEWMVQLCGASVVKELSSFTLGTGVHPIVVVQPDAWTEDNGFHAIGQMCEAPVVTREWVLDSVALYQCQELDTYLIPQIPHSHY
notes: BRCA1, human, full-length, rare germline missense variant introduced in the WT plasmid; Made by site-directed mutagenesis of the plasmid of m1; also called c.1567T > G; source: HEK293FT, transiently co-transfected, in lysate
B2: BRCA1 p.Cys39Tyr (full-length, mCherry-tagged; pathogenic control variant, RING domain) (natural protein, human, UniProt P38398 1-1863, looked up)
chain: B1 chain with C39Y, V523L
notes: BRCA1, human, full-length, pathogenic control missense variant in the RING domain, introduced in the WT plasmid; Made by site-directed mutagenesis of the plasmid of m1; all other places and c.116G > A say p.Cys39Tyr; also called c.116G > A; source: HEK293FT, transiently co-transfected, in lysate
B3: BRCA1 p.Gly890Arg (full-length, mCherry-tagged) (natural protein, human, UniProt P38398 1-1863, looked up)
chain: B1 chain with V523L, G890R
notes: BRCA1, human, full-length, rare germline missense variant introduced in the WT plasmid; Made by site-directed mutagenesis of the plasmid of m1; also called c.2668G > A; source: HEK293FT, transiently co-transfected, in lysate
B4: BRCA1 p.Ile925Val (full-length, mCherry-tagged) (natural protein, human, UniProt P38398 1-1863, looked up)
chain: B1 chain with V523L, I925V
notes: BRCA1, human, full-length, rare germline missense variant introduced in the WT plasmid; Made by site-directed mutagenesis of the plasmid of m1; also called c.2773A > G; source: HEK293FT, transiently co-transfected, in lysate
B5: BRCA1 p.Leu1439Phe (full-length, mCherry-tagged) (natural protein, human, UniProt P38398 1-1863, looked up)
chain: B1 chain with V523L, L1439F
notes: BRCA1, human, full-length, rare germline missense variant introduced in the WT plasmid; Made by site-directed mutagenesis of the plasmid of m1; also called c.4315C > T; source: HEK293FT, transiently co-transfected, in lysate
B6: BRCA1 p.Met1411Thr (full-length, mCherry-tagged; pathogenic control variant, coiled-coil domain) (natural protein, human, UniProt P38398 1-1863, looked up)
chain: B1 chain with V523L, M1411T
notes: BRCA1, human, full-length, pathogenic control missense variant in the coiled-coil domain, introduced in the WT plasmid; Made by site-directed mutagenesis of the plasmid of m1; also called c.4232T > C; source: HEK293FT, transiently co-transfected, in lysate
B7: BRCA1 p.Val1378Ile (full-length, mCherry-tagged; benign control variant, coiled-coil domain) (natural protein, human, UniProt P38398 1-1863, looked up)
chain: B1 chain with V523L, V1378I
notes: BRCA1, human, full-length, benign control missense variant in the coiled-coil domain, introduced in the WT plasmid; Made by site-directed mutagenesis of the plasmid of m1; also called c.4132G > A; source: HEK293FT, transiently co-transfected, in lysate
B8: BRCA1 p.Lys503Arg (full-length, mCherry-tagged) (natural protein, human, UniProt P38398 1-1863, looked up)
chain: B1 chain with K503R, V523L
notes: BRCA1, human, full-length, rare germline missense variant introduced in the WT plasmid; Made by site-directed mutagenesis of the plasmid of m1; also called c.1508A > G; source: HEK293FT, transiently co-transfected, in lysate

biological target: T1, BARD1-V5 WT (BRCA1-Associated RING …); assay: co-IP; HEK293FT co-transfected with BRCA1 WT or variant and BARD1-V5; 2 mg lysate protein incubated 90 min at 4 °C with V5 antibody coupled to Dynabeads Protein G; non-denaturing elution; BRCA1 in the IP detected by anti-BRCA1 blot, normalised to the anti-V5 signal, % of WT; conditions: partners not purified

Binder	Co-IP BARD1 (% of WT)
B1	71 % of WT
B2	8 % of WT
B3	77 % of WT
B4	97 % of WT
B5	60 % of WT

biological target: T2, Flag-PALB2 WT (Partner and Localiser of …); assay: co-IP; HEK293FT co-transfected with BRCA1 WT or variant and Flag-PALB2; 2 mg lysate protein incubated 90 min at 4 °C with Flag antibody coupled to Dynabeads Protein G; non-denaturing elution; BRCA1 in the IP detected by anti-BRCA1 blot, normalised to the anti-Flag signal, % of WT; conditions: partners not purified

Binder	Co-IP PALB2 (% of WT)
B6	11 % of WT
B1	73 % of WT
B3	89 % of WT
B7	72 % of WT
B4	88 % of WT
B8	18 % of WT
B5	86 % of WT
